Data taken from US20020058247A1 (TRIPEP, published 2002).

The binders below were run against T1, truncated recombinant form of HBeAg containing nine residues of pre-core and the 150 first residues of HBcAg (hepatitis B virus, UniProt P03146 1-150) (assay: EIA, support-bound peptide, HBeAg 2.5 ug/ml).
T1 construct: domain: nine residues of pre-core;range 1-150; also called hepatitis B virus e antigen
T1 sequence (P03146 1-150): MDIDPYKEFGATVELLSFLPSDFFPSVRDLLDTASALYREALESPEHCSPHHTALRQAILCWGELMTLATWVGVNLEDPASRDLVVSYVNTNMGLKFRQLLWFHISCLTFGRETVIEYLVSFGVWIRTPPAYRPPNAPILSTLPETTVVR

Question: ISCRASQSVSTSSYSYMHWY [ISCRASQSVSTSSYSYMHWY (SEQ. ID. No. 17)] was tested. Which OD did it give?
Answer: Its OD is 0.102 OD.

These binders were tested against T2, Full length recombinant HBcAg (rHBcAg) encompassing residues 1-183 (hepatitis B virus, UniProt P03146 1-183) (assay: competition EIA, HBcAg coated 1 ug/ml, peptide 25 ug/ml before mAb 4-2 (competitor); OD of bound mAb).
T2 construct: range 1-183; also called hepatitis B virus core antigen
T2 sequence (P03146 whole entry, the tested form may be a part): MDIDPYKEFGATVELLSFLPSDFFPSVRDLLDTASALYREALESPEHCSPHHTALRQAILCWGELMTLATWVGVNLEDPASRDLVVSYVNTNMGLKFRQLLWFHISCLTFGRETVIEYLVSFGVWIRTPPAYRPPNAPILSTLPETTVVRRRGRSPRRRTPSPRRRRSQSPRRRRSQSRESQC

Question: For ISCRASQSVSTSSYSYMHWY [ISCRASQSVSTSSYSYMHWY (SEQ. ID. No. 17)], which “OD at 490 nm” value is on record?
Answer: The value was 0.439 OD.

Each binder was assayed against T2, Full length recombinant HBcAg (rHBcAg) … (assay: EIA, support-bound peptide, HBcAg 0.67 ug/ml).

Question: Which OD does the source give for ISCRASQSVSTSSYSYMHWY [ISCRASQSVSTSSYSYMHWY (SEQ. ID. No. 17)] here?
Answer: Its OD is 0.039 OD.

The binders below were run against T2, Full length recombinant HBcAg (rHBcAg) … (assay: EIA, support-bound peptide, HBcAg 20 ug/ml).

Question: ISCRASQSVSTSSYSYMHWY [ISCRASQSVSTSSYSYMHWY (SEQ. ID. No. 17)] was tested. Which OD did it give?
Answer: The OD was 2.66 OD.

What follows are binders tested against T2, Full length recombinant HBcAg (rHBcAg) … (assay: EIA, peptide coated 25 ug/ml, HBcAg 10 ug/ml).

Question: For ISCRASQSVSTSSYSYMHWY [ISCRASQSVSTSSYSYMHWY (SEQ. ID. No. 17)], which OD is on record?
Answer: The OD was 0.636 OD.

The binders below were run against T2, Full length recombinant HBcAg (rHBcAg) … (assay: competition EIA, HBcAg coated 5 ug/ml, peptide 12.5 ug/ml together with mAb 4-2 (competitor); OD of bound mAb).

Question: ISCRASQSVSTSSYSYMHWY [ISCRASQSVSTSSYSYMHWY (SEQ. ID. No. 17)] was tested. Which “OD at 490 nm” value did it give?
Answer: The value was 1.44 OD.

What follows are binders tested against T2, Full length recombinant HBcAg (rHBcAg) … (assay: competition EIA, HBcAg coated 1 ug/ml, peptide 6.25 ug/ml before mAb 4-2 (competitor); OD of bound mAb).

Question: For ISCRASQSVSTSSYSYMHWY [ISCRASQSVSTSSYSYMHWY (SEQ. ID. No. 17)], which “OD at 490 nm” value is on record?
Answer: The value was 0.37 OD.

What follows are binders tested against T2, Full length recombinant HBcAg (rHBcAg) … (assay: competition EIA, HBcAg coated 1 ug/ml, peptide 12.5 ug/ml before mAb 4-2 (competitor); OD of bound mAb).

Question: ISCRASQSVSTSSYSYMHWY [ISCRASQSVSTSSYSYMHWY (SEQ. ID. No. 17)] was tested. Which “OD at 490 nm” value did it give?
Answer: Its value is 0.38 OD.

These binders were tested against T2, Full length recombinant HBcAg (rHBcAg) … (assay: EIA, peptide coated 12.5 ug/ml, HBcAg 10 ug/ml).

Question: Which OD does the source give for ISCRASQSVSTSSYSYMHWY [ISCRASQSVSTSSYSYMHWY (SEQ. ID. No. 17)] here?
Answer: Its OD is 0.514 OD.

These binders were tested against T2, Full length recombinant HBcAg (rHBcAg) … (assay: EIA, support-bound peptide, HBcAg 2 ug/well).

Question: Which “OD at 405 nm” value does the source give for ISCRASQSVSTSSYSYMHWY [ISCRASQSVSTSSYSYMHWY (SEQ. ID. No. 17)] here?
Answer: Its value is 2.48 OD.

What follows are binders tested against T1, truncated recombinant form of HBeAg … (assay: EIA, support-bound peptide, HBeAg 0.67 ug/ml).

Question: For ISCRASQSVSTSSYSYMHWY [ISCRASQSVSTSSYSYMHWY (SEQ. ID. No. 17)], which OD is on record?
Answer: The OD was 0.046 OD.

Each binder was assayed against T2, Full length recombinant HBcAg (rHBcAg) … (assay: competition EIA, HBcAg coated 5 ug/ml, peptide 200 ug/ml together with mAb 4-2 (competitor); OD of bound mAb).

Question: Which “OD at 490 nm” value does the source give for ISCRASQSVSTSSYSYMHWY [ISCRASQSVSTSSYSYMHWY (SEQ. ID. No. 17)] here?
Answer: The value was 1.47 OD.

These binders were tested against T2, Full length recombinant HBcAg (rHBcAg) … (assay: competition EIA, HBcAg coated 1 ug/ml, peptide 50 ug/ml before mAb 4-2 (competitor); OD of bound mAb).

Question: With ISCRASQSVSTSSYSYMHWY [ISCRASQSVSTSSYSYMHWY (SEQ. ID. No. 17)] as the binder, how does the “OD at 490 nm” value read?
Answer: The value was 0.402 OD.

These binders were tested against T2, Full length recombinant HBcAg (rHBcAg) … (assay: competition EIA, HBcAg coated 5 ug/ml, peptide 6.25 ug/ml together with mAb 4-2 (competitor); OD of bound mAb).

Question: Which “OD at 490 nm” value does the source give for ISCRASQSVSTSSYSYMHWY [ISCRASQSVSTSSYSYMHWY (SEQ. ID. No. 17)] here?
Answer: Its value is 1.26 OD.

Each binder was assayed against T2, Full length recombinant HBcAg (rHBcAg) … (assay: EIA, peptide coated 50 ug/ml, HBcAg 10 ug/ml).

Question: ISCRASQSVSTSSYSYMHWY [ISCRASQSVSTSSYSYMHWY (SEQ. ID. No. 17)] was tested. Which OD did it give?
Answer: Its OD is 0.569 OD.

What follows are binders tested against T1, truncated recombinant form of HBeAg … (assay: EIA, support-bound peptide, HBeAg 5 ug/ml).

Question: Which OD does the source give for ISCRASQSVSTSSYSYMHWY [ISCRASQSVSTSSYSYMHWY (SEQ. ID. No. 17)] here?
Answer: Its OD is 0.132 OD.

What follows are binders tested against T2, Full length recombinant HBcAg (rHBcAg) … (assay: competition EIA, HBcAg coated 1 ug/ml, peptide 100 ug/ml before mAb 4-2 (competitor); OD of bound mAb).

Question: How did the “OD at 490 nm” value turn out when ISCRASQSVSTSSYSYMHWY [ISCRASQSVSTSSYSYMHWY (SEQ. ID. No. 17)] was run?
Answer: Its value is 0.37 OD.

What follows are binders tested against T2, Full length recombinant HBcAg (rHBcAg) … (assay: EIA, support-bound peptide, HBcAg 5 ug/ml).

Question: Which OD does the source give for ISCRASQSVSTSSYSYMHWY [ISCRASQSVSTSSYSYMHWY (SEQ. ID. No. 17)] here?
Answer: The OD was 0.633 OD.

Each binder was assayed against T1, truncated recombinant form of HBeAg … (assay: EIA, support-bound peptide, HBeAg 1.25 ug/ml).

Question: Which OD does the source give for ISCRASQSVSTSSYSYMHWY [ISCRASQSVSTSSYSYMHWY (SEQ. ID. No. 17)] here?
Answer: Its OD is 0.056 OD.

The binders below were run against T2, Full length recombinant HBcAg (rHBcAg) … (assay: competition EIA, HBcAg coated 5 ug/ml, peptide 50 ug/ml together with mAb 4-2 (competitor); OD of bound mAb).

Question: ISCRASQSVSTSSYSYMHWY [ISCRASQSVSTSSYSYMHWY (SEQ. ID. No. 17)] was tested. Which “OD at 490 nm” value did it give?
Answer: Its value is 1.56 OD.

Each binder was assayed against T2, Full length recombinant HBcAg (rHBcAg) … (assay: EIA, support-bound peptide, HBcAg 1.25 ug/ml).

Question: For ISCRASQSVSTSSYSYMHWY [ISCRASQSVSTSSYSYMHWY (SEQ. ID. No. 17)], which OD is on record?
Answer: The OD was 0.117 OD.

What follows are binders tested against T1, truncated recombinant form of HBeAg … (assay: EIA, support-bound peptide, HBeAg 20 ug/ml).

Question: How did the OD turn out when ISCRASQSVSTSSYSYMHWY [ISCRASQSVSTSSYSYMHWY (SEQ. ID. No. 17)] was run?
Answer: The OD was 0.687 OD.

Each binder was assayed against T2, Full length recombinant HBcAg (rHBcAg) … (assay: competition EIA, HBcAg coated 5 ug/ml, peptide 25 ug/ml together with mAb 4-2 (competitor); OD of bound mAb).

Question: For ISCRASQSVSTSSYSYMHWY [ISCRASQSVSTSSYSYMHWY (SEQ. ID. No. 17)], which “OD at 490 nm” value is on record?
Answer: Its value is 1.39 OD.
